This is an account of results in publication PMC10141624.

The assay concerns the target HA-T-AGM protein (recombinant soluble trimeric hemagglutinin of Influenza A/Guangdong-Maonan/SWL1536/2019 (H1N1) pdm09-like virus) (Influenza A/Guangdong-Maonan/SWL1536/2019 (H1N1) | not stated). Kind of assay: SEC. (Size exclusion chromatography separates by hydrodynamic size, large species first.)

By stoichiometry N is commonly meant the number of molecules, sites or subunits per partner or assembly.

“HA-T-AGM protein (recombinant soluble trimeric hemagglutinin of Influenza A/Guangdong-Maonan/SWL1536/2019 (H1N1) pdm09-like virus)”: the stoichiometry N was 3.
